Source: US20120121596A1 (published 2012)
Positions count from the first letter of the chain named.

T1: HER4-ECD-Fc (human, UniProt Q15303 26-651, limits assumed)
T1 construct: extracellular domain
T1 sequence (looked up): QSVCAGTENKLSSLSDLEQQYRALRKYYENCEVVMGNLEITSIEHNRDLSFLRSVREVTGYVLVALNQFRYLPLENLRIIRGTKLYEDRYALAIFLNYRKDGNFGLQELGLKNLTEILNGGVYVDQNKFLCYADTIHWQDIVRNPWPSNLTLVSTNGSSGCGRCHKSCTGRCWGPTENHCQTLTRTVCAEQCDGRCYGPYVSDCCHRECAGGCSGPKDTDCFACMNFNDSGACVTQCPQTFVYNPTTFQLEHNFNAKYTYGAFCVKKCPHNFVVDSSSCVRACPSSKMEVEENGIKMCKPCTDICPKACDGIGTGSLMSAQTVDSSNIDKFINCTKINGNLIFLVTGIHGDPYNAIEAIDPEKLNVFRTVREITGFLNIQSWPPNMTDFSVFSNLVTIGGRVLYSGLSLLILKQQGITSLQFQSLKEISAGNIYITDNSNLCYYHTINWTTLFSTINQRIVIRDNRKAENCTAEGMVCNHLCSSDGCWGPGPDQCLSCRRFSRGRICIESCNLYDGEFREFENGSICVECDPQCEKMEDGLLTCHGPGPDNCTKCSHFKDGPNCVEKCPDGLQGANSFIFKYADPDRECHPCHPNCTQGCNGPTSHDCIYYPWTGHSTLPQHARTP

B1: D1.5-201-3 (phage-displayed Fab clone) (Fab, V domains shown)
VH: EVQLVESGGGLVQPGGSLRLSCAASGFTFTGNWIHWVRQAPGKGLEWVGEISPSGGYTDYADSVKGRFTISADTSKNTAYLQMNSLRAEDTAVYYCARESRVSYEAAMDYWGQGTLVTVSS
VL: DIQMTQSPSSLSASVGDRVTITCRASQSLWAAYFAPVAWYQQKPGKAPKLLIYDGSYLYSGVPSRFSGSGSGTDFTLTISSLQPEDFATYYCQQRLPSPYTFGQGTKVEIKR
B2: D1.5-201-2 (phage-displayed Fab clone) (Fab, V domains shown)
VH: B1 VH
VL: B1 VL with S26N, L29I, W30A, A31G, F34Y, S56Y, Y57F
B3: DL3-11f (antibody, V domains shown)
VH: B1 VH with F29L, T30S, N32D, P53A, S54A, R101K, Y104F
VL: DIQMTQSPSSLSASVGDRVTITCRASQNIATDVAWYQQKPGKAPKLLIYSASFLYSGVPSRFSGSGSGTDFTLTISSLQPEDFATYYCQQSEPEPYTFGQGTKVEIKR
B4: DL3-11b (antibody, V domains shown)
VH: B1 VH with F29L, T30S, N32D, V48L, P53A, S54A, R101K, Y104F
VL: B3 VL
notes: also called DL3-11fb
B5: D1.5-103 (mIgG2A) (bispecific antibody, V domains shown)
VH: B1 VH
VL: DIQMTQSPSSLSASVGDRVTITCRASQALGDSENGYADVAWYQQKPGKAPKLLIYEGSSLYSGVPSRFSGSGSGTDFTLTISSLQPEDFATYYCQQAAPSPYTFGQGTKVEIKR
B6: D1.5-100 (mIgG2A) (bispecific antibody, V domains shown)
VH: B1 VH
VL: B3 VL with N28D, I29L
notes: also called anti-EGFR/HER3 antibody D1.5-100
B7: D1.5-113 (mIgG2A) (bispecific antibody, V domains shown)
VH: B1 VH
VL: DIQMTQSPSSLSASVGDRVTITCRASQSLLASHDGTPWVAWYQQKPGKAPKLLIYDASYLYSGVPSRFSGSGSGTDFTLTISSLQPEDFATYYCQQSTFAPYTFGQGTKVEIKR
B8: D1.5-116 (mIgG2A) (bispecific antibody, V domains shown)
VH: B1 VH
VL: B3 VL with N28A, T31S
B9: D1.5-122 (mIgG2A) (bispecific antibody, V domains shown)
VH: B1 VH
VL: B3 VL with T31S, F53S, E92D
B10: D1.5-115 (mIgG2A) (bispecific antibody, V domains shown)
VH: B1 VH
VL: B3 VL with N28E, A30F, T31P, F53S, S91A, E92A, E94T
B11: D1.5-121 (mIgG2A) (bispecific antibody, V domains shown)
VH: B1 VH
VL: B3 VL with N28D, I29V, A30G, T31S, V33L, F53Y, E92D
B12: DL11 (mIgG2A) (bispecific antibody, V domains shown)
VH: B1 VH with F29L, T30S, N32D, V48L, P53A, S54A, Y104F
VL: B3 VL with N28D, I29L
B13: DL11b (bispecific antibody, V domains shown)
VH: B1 VH with F29L, T30S, N32D, V48L, P53A, S54A, Y104F
VL: B3 VL
B14: D1.5-103 (phage-displayed Fab clone) (Fab, V domains shown)
VH: B1 VH
VL: B5 VL
notes: EGFR/HER3 clone
B15: D1.5-113 (phage-displayed Fab clone) (Fab, V domains shown)
VH: B1 VH
VL: B7 VL
notes: EGFR/HER3 clone
B16: D1.5-116 (phage-displayed Fab clone) (Fab, V domains shown)
VH: B1 VH
VL: B3 VL with N28A, T31S
notes: EGFR/HER3 clone
B17: D1.5-121 (phage-displayed Fab clone) (Fab, V domains shown)
VH: B1 VH
VL: B3 VL with N28D, I29V, A30G, T31S, V33L, F53Y, E92D
notes: EGFR/HER3 clone
B18: D1.5-122 (phage-displayed Fab clone) (Fab, V domains shown)
VH: B1 VH
VL: B3 VL with T31S, F53S, E92D
notes: EGFR/HER3 clone
B19: D1.5-115 (phage-displayed Fab clone) (Fab, V domains shown)
VH: B1 VH
VL: B3 VL with N28E, A30F, T31P, F53S, S91A, E92A, E94T
notes: EGFR/HER3 clone

The binders below were run against T2, HER2-ECD (human, UniProt P04626 23-652) (assay: phage IC50 (solution competition ELISA), compared to D1.5-201).
T2 construct: extracellular domain

Binder	binding result
B1	binds
B2	binds

Each binder was assayed against T3, hEGFR-ECD (human, UniProt P00533 25-645) in the same assay as above.
T3 construct: extracellular domain

Binder	binding result
B1	binds
B2	binds

What follows are binders tested against HER3 (form not given) (human, UniProt P21860 20-643, limits assumed) (assay: affinity maturation of DL11).

Binder	binding result
B3	binds
B4	binds

The binders below were run against T4, HER3-ECD-Fc (human, UniProt P21860 20-643, limits assumed) (assay: competition with 125I-HRG for HER3-ECD-Fc captured on anti-human antibody plates, antibody pre-bound, counts as % of control).
T4 construct: extracellular domain; also called HER3-FC; HER3-IgG

Binder	IC50 (read off the curve)	binding result
B5	~3 nM	–
B6	~2 nM	–
B7	–	binds
B8	–	binds
B9	~3 nM	–
B10	–	binds
B11	–	binds

Each binder was assayed against HER3 on cells (MCF7 cells; MDA-175 cells) (UniProt P21860 20-1342, limits assumed) (assay: cell-based or functional assay).

Binder	IC50 of inhibition of MDA-175 cell proliferation
B12	0.8 to 1 µg/mL
B13	0.8 to 1 µg/mL

The binders below were run against T2, HER2-ECD (assay: direct phage ELISA, proteins coated at 2 µg/ml, phage-Fab supernatant, OD450;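 further: specificity test of dual-activity clones, with binding assessed across an antigen panel to check whether each recognises only its cognate target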).

Binder	binding result
B14	no binding
B15	no binding
B16	no binding
B17	no binding
B18	no binding
B19	no binding

Each binder was assayed against T1, HER4-ECD-Fc in the same assay as above.

Binder	binding result
B14	no binding
B15	no binding
B16	no binding
B17	no binding
B18	no binding
B19	no binding

The binders below were run against T4, HER3-ECD-Fc in the same assay as above.

Binder	binding result
B15	binds
B16	binds
B17	binds
B19	binds

The binders below were run against T3, hEGFR-ECD in the same assay as above.

Binder	binding result
B14	binds
B15	binds
B16	binds
B17	binds
B18	binds
B19	binds

Each binder was assayed against T5, BSA (bovine, UniProt P02769) in the same assay as above.
T5 construct: also called bovine serum albumin
T5 sequence (P02769 25-607 limits assumed): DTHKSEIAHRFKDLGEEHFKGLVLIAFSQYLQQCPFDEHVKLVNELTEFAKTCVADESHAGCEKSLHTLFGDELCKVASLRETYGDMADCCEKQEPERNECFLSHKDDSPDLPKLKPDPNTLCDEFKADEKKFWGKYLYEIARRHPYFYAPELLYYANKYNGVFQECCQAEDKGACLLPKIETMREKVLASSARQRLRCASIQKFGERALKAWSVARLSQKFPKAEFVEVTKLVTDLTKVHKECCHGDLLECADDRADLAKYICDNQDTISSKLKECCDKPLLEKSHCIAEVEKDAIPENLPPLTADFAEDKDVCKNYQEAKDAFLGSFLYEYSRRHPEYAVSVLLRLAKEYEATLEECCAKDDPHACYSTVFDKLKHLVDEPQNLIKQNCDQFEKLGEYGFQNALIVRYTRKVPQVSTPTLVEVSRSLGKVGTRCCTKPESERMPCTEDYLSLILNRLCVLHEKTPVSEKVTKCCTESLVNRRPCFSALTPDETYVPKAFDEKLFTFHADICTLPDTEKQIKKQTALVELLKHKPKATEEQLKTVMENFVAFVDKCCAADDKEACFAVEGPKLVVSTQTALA

Binder	binding result
B14	no binding
B15	no binding
B16	no binding
B17	no binding
B18	no binding
B19	no binding

Each binder was assayed against T6, Erbitux in the same assay as above.
T6 construct: also called cetuximab; C225; not shown: the constant regions

Binder	binding result
B14	no binding
B15	no binding
B16	no binding
B17	no binding
B19	no binding
